Data taken from US7553821B2, “Methods for selectively modulating survivin apoptosis pathways” (Yale University, priority 2000, dated 2009).

What was measured:
p34^cdc2-cyclin B1 = target: T1, p34^cdc2-cyclin B1 (Homo sapiens, UniProt P06493); test: In vitro kinase assay with p34cdc2-cyclin B1; type: biochemical; conditions: recombinant protein as substrate, 32P-ATP, 30 min at 30° C., autoradiography
T1 construct: host or cells: baculovirus expression system
Description: FIG. 1B. In vitro kinase assay. Wild type (WT) survivin, survivin(T34A) (T34A), or control (H1) were incubated with baculovirus-expressed p34^cdc2-cyclin B1 or cdk2-cyclin E in kinase buffer plus 10 μCi γ-^32P-ATP for 30 min at 30° C. Samples were separated by SDS gel electrophoresis and radioactive bands were visualized by autoradiography. Equal protein loading was confirmed by Coomassie blue staining of the gel.
(§1) Transfection experiments. For transient transfection, HeLa cells in C-6 tissue culture plates (Costar, Cambridge, Mass.) at ˜60-70% confluency, were incubated in 1 ml of serum-free OptiMEM medium (Life Technologies, Gaithersburg, Md.) for 20 min, and transfected with 2.5 μg of the various plasmid cDNAs plus 9 μl Lipofectamine (Life Technologies). After a 5 h incubation at 37° C., the mixture was aspirated and substituted with complete growth medium for 48-72 h. To generate stable YUSAC-2 transfectants, a survivin(T34A) cDNA was inserted into the HindIII-SpeI sites of the pTet-splice vector (Dr. D. Schatz, Yale University School of Medicine), downstream of the regulatory sequences of the Tet-resistance operon (TetO). […] Gated GFP-expressing cells were analyzed for DNA content by flow cytometry on a FACSort (Becton Dickinson, San Jose, Calif.) using a Cell Quest software. […]

p34^cdc2 = target: T2, p34^cdc2 (Homo sapiens, UniProt P06493); test: Co-immunoprecipitation of survivin and p34cdc2 from HeLa cells; type: binding; conditions: asynchronously growing transfected HeLa cells
T2 construct: immunoprecipitated with an antibody to HA, and immunoblotted with antibodies to p34^cdc2 or HA; endogenous in cells; host or cells: HeLa
T2 sequence (P06493 whole entry): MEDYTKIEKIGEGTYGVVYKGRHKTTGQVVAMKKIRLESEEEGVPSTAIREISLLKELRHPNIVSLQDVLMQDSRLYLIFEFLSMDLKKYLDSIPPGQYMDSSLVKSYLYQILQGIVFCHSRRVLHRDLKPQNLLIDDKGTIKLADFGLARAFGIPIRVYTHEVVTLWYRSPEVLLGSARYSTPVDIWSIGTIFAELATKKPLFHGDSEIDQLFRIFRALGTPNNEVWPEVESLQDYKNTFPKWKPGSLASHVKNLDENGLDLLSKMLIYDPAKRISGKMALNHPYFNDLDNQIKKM
Description: The experimental procedures are the same as in A, except that asynchronously growing HeLa cells were transfected with HA-survivin or HA-survivin(T34A), immunoprecipitated with an antibody to HA, and immunoblotted with antibodies to p34^cdc2 or HA. W, whole HeLa cell extract.
as §1, with “(TetO). YUSAC-2 cells were transfected with 0.8 μg pTet-T34A, 0.8 μg of the transactivation/selection plasmid ptTA-Neo and 5 μl Lipofectamine in 1 ml of OptiMem.” for “(TetO).”

T1 sequence (P06493 whole entry): as above
T1 sequence (P14635 whole entry partner): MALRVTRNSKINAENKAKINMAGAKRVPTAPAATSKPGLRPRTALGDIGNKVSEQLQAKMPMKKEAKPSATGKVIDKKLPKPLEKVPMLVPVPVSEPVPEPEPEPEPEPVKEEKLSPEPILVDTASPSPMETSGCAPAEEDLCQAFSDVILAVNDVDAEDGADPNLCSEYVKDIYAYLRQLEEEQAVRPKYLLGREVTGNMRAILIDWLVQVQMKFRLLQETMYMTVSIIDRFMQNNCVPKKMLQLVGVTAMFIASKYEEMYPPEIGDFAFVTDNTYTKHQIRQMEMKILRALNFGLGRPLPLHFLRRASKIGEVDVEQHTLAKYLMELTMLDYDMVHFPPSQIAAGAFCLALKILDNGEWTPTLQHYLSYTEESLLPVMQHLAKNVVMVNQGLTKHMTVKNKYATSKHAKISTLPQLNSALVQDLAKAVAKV

“survivin(T34A): dominant-negative, non-phosphorylatable survivin mutant with Thr34→Ala substitution, expressed from transfected cDNA (also HA- or GFP-tagged)” was tested, and the “phosphorylation by p34^cdc2-cyclin B1” value (p34^cdc2-cyclin B1) was “abolished phosphorylation” and the “p34^cdc2 in HA immunoprecipitates by Western blotting” value (p34^cdc2) was “contained a prominent p34^cdc2 band”.
